Reference: paper PMC7316351, “Cancer-associated mutations in the iron-sulfur domain of FANCJ affect G-quadruplex metabolism”
Numbering of substitutions follows the chain as printed.

Columns and labels:
FANCJ K52R = target: T1, FANCJ K52R (UniProt Q9BX63 1-1249, K52R); test: EMSA; 10/40/70 nM protein, 5 nM DNA, no ATP; EMSA: 15 mM Na-phosphate pH 7.4, 45 mM NaCl, 3% glycerol, 40 mM Tris-HCl pH 7.4, 25 mM KCl, 100 ng/ul BSA, 2 mM DTT, 0.1 mM EDTA; 30 min at 25 C; 5% PAGE in 1x; settings: protein: recombinant; tags: N-terminal Flag; label: 5'-FAM on strand 1
T1 sequence: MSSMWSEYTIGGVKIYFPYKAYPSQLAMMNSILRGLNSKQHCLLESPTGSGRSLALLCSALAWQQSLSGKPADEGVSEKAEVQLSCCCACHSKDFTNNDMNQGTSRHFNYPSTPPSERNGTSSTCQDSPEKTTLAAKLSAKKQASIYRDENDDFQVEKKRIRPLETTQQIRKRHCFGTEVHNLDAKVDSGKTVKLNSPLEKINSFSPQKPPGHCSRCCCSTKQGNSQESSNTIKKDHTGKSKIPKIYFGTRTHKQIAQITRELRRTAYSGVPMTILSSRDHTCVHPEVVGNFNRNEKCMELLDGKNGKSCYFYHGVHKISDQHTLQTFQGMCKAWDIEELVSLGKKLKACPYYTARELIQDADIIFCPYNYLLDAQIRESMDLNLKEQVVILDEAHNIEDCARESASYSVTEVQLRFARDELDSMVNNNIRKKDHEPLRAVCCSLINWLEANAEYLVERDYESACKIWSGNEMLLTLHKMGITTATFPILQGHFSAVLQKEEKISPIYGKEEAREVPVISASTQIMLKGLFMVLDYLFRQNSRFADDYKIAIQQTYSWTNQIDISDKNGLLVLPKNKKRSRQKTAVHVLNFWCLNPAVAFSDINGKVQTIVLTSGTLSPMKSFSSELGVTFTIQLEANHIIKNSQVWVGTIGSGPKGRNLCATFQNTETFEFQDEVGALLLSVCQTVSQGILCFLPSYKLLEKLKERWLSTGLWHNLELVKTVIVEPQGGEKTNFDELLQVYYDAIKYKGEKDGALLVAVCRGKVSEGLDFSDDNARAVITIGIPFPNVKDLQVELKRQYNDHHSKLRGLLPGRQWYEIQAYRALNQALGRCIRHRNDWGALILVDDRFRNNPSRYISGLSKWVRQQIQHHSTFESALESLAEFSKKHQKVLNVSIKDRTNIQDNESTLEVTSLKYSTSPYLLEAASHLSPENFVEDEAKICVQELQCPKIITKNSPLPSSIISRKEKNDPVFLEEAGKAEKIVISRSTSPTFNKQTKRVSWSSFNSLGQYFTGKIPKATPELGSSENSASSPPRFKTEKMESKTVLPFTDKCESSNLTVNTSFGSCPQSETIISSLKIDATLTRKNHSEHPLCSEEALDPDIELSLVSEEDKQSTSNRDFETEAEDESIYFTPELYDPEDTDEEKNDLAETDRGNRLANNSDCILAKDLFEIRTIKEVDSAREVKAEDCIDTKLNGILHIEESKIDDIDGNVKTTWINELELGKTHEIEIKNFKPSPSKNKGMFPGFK

FANCJ M299I = target: T2, FANCJ M299I (UniProt Q9BX63 1-1249, M299I); test: EMSA; 10/40/70 nM protein, 5 nM DNA, no ATP; wild-type level of binding; EMSA: 15 mM Na-phosphate pH 7.4, 45 mM NaCl, 3% glycerol, 40 mM Tris-HCl pH 7.4, 25 mM KCl, 100 ng/ul BSA, 2 mM DTT, 0.1 mM EDTA; 30 min at 25 C; 5% PAGE in 1x; settings: protein: recombinant; tags: N-terminal Flag; label: 5'-FAM on strand 1
T2 sequence: T1 sequence with R52K, M299I

B1: Y-structure (XO1/sDO1) (dsDNA)
DNA 1: GACGCTGCCGAATTCTACCAGTGCCTTGCTAGGACATCTTTG
DNA 2: TTTTTTTTTTTTTTTTTTTTTTTTTTTTTTTTTTTTGGTAGAATTCGGCAGCGT
binding result (FANCJ K52R): binds | binding result (FANCJ M299I): binds
